Experimental data taken from PMC5107993, “Glutathione-conjugating and membrane-remodeling activity of GDAP1 relies on amphipathic C-terminal domain” (Scientific Reports, 2016).

Target: the molecule itself
Assay: SEC; Superdex 200 10/300 in 20 mM Tris pH 8.0, 100 mM NaCl, 1 mM DTT, 1 mM EDTA; peak fractions re-chromatographed under identical conditions; monomer to dimer

B1: GDAP1 T318X-6xHis (domain or fragment, human, UniProt Q8TB36 1-317, looked up)
chain: MAERQEEQRGSPPLRAEGKADAEVKLILYHWTHSFSSQKVRLVIAEKALKCEEHDVSLPLSEHNEPWFMRLNSTGEVPVLIHGENIICEATQIIDYLEQTFLDERTPRLMPDKESMYYPRVQHYRELLDSLPMDAYTHGCILHPELTVDSMIPAYATTRIRSQIGNTESELKKLAEENPDLQEAYIAKQKRLKSKLLDHDNVKYLKKILDELEKVLDQVETELQRRNEETPEEGQQPWLCGESFTLADVSLAVTLHRLKFLGFARRNWGNGKRPNLETYYERVLKRKTFNKVLGHVNNILISAVLPTAFRVAKKRAP
notes: GDAP1, human (recombinant human GDAP1), truncated by a stop in place of T318 (T318X), lacks the TMD, keeps HD1; cloned into vector pFL of the MultiBac system; the methods print the name as T3188X; also called GDAP1 T3188X; not shown: His6, C-terminal, kept
B1 was tested, and the “stoichiometry N” value was 2.

B2: GDAP1 T288X-6xHis (domain or fragment, human, UniProt Q8TB36 1-287, looked up)
chain: MAERQEEQRGSPPLRAEGKADAEVKLILYHWTHSFSSQKVRLVIAEKALKCEEHDVSLPLSEHNEPWFMRLNSTGEVPVLIHGENIICEATQIIDYLEQTFLDERTPRLMPDKESMYYPRVQHYRELLDSLPMDAYTHGCILHPELTVDSMIPAYATTRIRSQIGNTESELKKLAEENPDLQEAYIAKQKRLKSKLLDHDNVKYLKKILDELEKVLDQVETELQRRNEETPEEGQQPWLCGESFTLADVSLAVTLHRLKFLGFARRNWGNGKRPNLETYYERVLKRK
notes: GDAP1, human (recombinant human GDAP1), truncated by a stop in place of T288 (T288X), lacks TMD and HD1; cloned into vector pFL of the MultiBac system; not shown: His6, C-terminal, kept
With B2 the “stoichiometry N” value was 2.
